# Target: the molecule itself
# Experiment: SEC; HiLoad 16/60 Superdex 200 pg; 150 mM NaCl, 50 mM Tris, 10 mM MgCl2, pH 8.0; monodisperse peak at ~60 kDa against 30.5 kDa for the monomer
protein,measurement,value
"Sulfolobus acidocaldarius GPN-loop GTPase SaGPN (Saci_1281) (enzyme, SaGPN (Saci_1281), the solitary GPN-loop GTPase of Sulfolobus acidocaldarius, Uniprot Q4J9A7; residues Y2-A240 were built in both structures, 14 amino acids at the C-terminus are disordered; printed mass 30.5 kDa; Crystallised with GppNHp or GDP and Mg2+; source: E. coli BL21(DE3) Rosetta, purified (heat treatment, Ni-NTA, SEC); not shown: His10, N-terminal, kept) YFIFVLGTAGSGKTTLVKALQDYLLNNELDTAIINLDPAVEVLPYKPDIDAREYVDVYDVMNKYELGPNSSLVISVDLLLTKAKELKEDLNQLQANYVLVDTPGQIELFAYRDTGKILSSFISEGSKSVSVFLFDSYLSKDPKSFLSLFLLSSSIKFRIDMPQISVLSKVDLLSSSELERMRSWIEDGSIIDELGSIDEYSFELVKTIVENLESFPIPVSSTNFSGLDQLYAEVQKVLAGGEDFETEEPNPRL",stoichiometry N,2
